Target: T1, crotonyl-S-SfaO (N-terminal 6x His-tagged free acyl carrier protein SfaO carrying a crotonyl thioester)
T1 chain: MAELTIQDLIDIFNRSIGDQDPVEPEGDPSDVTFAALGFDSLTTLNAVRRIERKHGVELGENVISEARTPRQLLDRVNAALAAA

B1: N-terminal 6x His-tagged SfaR (crotonyl-CoA reductase) (protein)
chain: VNEILSAVLSAEATAADFAALPLPESYRAITVHKDETEMFTGVGPADKDPRKSLHLDEVPVPELGPGEALVAVMASSVNYNSVWSSIFEPLPTFAFLERYGRRGELAKRHDLPYHVIGSDLAGVVLRTGPGVQAWKPGDEVVAHCLSVELESSDGHDDTMMDPEQRIWGFETNFGGLAELALVKSNQLMPKPRHLTWEEAAAPGLVNSTAYRQLVSRNGAQMKQGDNVLIWGASGGLGSYATQLALAGGANPVCVVSTPQKAAICRSMGAEAVIDRDAEDYRFWRDGNTQDPREWKRFGKRIRELTGGEDVDIVFEHPGRETFGASVFVARKGGTIVTCASTSGYEHQYDNRYLWMSLKRIIGSHFANYREAWEANRLVAKGRIHPTLSKVYPLEETGQAAFDVYGNVHHGKVGVLGLAPTEGLGVRDEEMRARHVGAINRFRPSAEPQTEPV
activity of SfaR (reduction / reductive carboxylation) with crotonyl-S-SfaO as the substrate: failed to detect any activity of SfaR

Source: patent US20110229941
